Measurements: the DeepSol protein solubility set

Assay: soluble on expression in E. coli; label from the status in PepcDB or PDB records

Sequence	soluble on expression in E. coli
MGSDKIHHHHHHMADQTESVSGVNVDQAELQKFAELAHKWWDKNSEFKPLHEINPLRLNYIDEHAGLAGKRVLDVGCGGGILSESMSERGAEVTGIDLGEKALKVAKLHQYESSAKVDYRLISVEELAQESPESFDIVTCMEMLEHVPDPAAIVRACARLTKPGGKVFFSTINRNPKAYLFAVLGAEYVLNLLPRGTHEYEKFIKPSELAGWARAAGLDVIASKGMGYNPLTKRYKLNNDVSVNYILQTVK	not soluble
MGHHHHHHSGEVKPEVKPETHINLKVSDGSSEIFFKIKKTTPLRRLMEAFAKRQGKEMDSLRFLYDGIRIQADQTPEDLDMEDNDIIEAHREQIGGMRTYLDLLQHVLDHGVDRDDRTGTGTRSVFGYQMRFDLEEGFPVLTTKKLHLRSIIHELLWFLKGDTNIAYLKENGVTIWDEWADENGDLGPVYGYQWRSWPAPDGRHIDQIANLLKMLHTNPQSRRLIVSAWNPALVDEMALPPCHCLFQFYVANGRLSCQLYQRSADIFLGVPFNIASYALLTMMIAQVTGLKPGEFIHTLGDAHIYSNHFEQARLQLTRTPKKLPVMHINPDVKDLFAFRFEDFRLDGYEADPTIKAPIAV	soluble
MSNEHTRPPLPPFTRESAIEKVRLAEDGWNTREPEKIALAYTVDTQWRNRAEFANNREEARDFLTRKWKKELDYRLIKELWAFTDNRIAVRYAYEWHDDSGNWFRSYGNENWEFEADGLMHRRFACINDMPIKESERKFHWPLGRRPDDHPGLTELGLLEHHHHHH	not soluble
MGSDKIHHHHHHLLPKYNILTEDQVQKIHENTMKILEEIGIEFEYEPALEVFRREGQKVEGKRVYLTREFVESKLKSAPAEFTLHARNPENNVVIGGDNIVFMPGYGAPFIYELDGSRRKTTLQDYENFAKLAGASKNMHLSGGTMAEPQDIPDGVRHLQMLYSSIKNSDKCFMGSAEGKERAEDSVEIAAILFGGKDVIKEKPVLVSLINSLTPLKYDERMLGALMAYAEAGQAVIIASLVMAGSTGPASLAGTLSLQNAEVLAGISLAQSINPGTPVIYGSTSALSDMRSGSLSIGSPECALFISASAQLARFYGVPSRSGGGLNDSKTVDAQAGYESMMTLMAANLTGVNFVLHTAGILQYFMAMSYEKFIMDDEIAGMLLHYMKGYTFDEDGMAFDVIEKVGPGGHFLTQKHTRKNHKREFYTPTLSDRSAYDTWAKEKLETKQRAHARWQQILANYVPPALDPEIDAKLQAFIAQRGKEVGEE	not soluble
MSLDVRIVDIDSEKPPEAKRCFLLSDVHGRADDIDTKYFNYDFDFLFFAGDMSNKSKYHEIKSFKKWINKMKAKYKIVVAGNHDLVFDREEFNDIIIGNHTAQEIRDLILKDKNIIYLEHEEITIEGIKIFGTPLSNIRIHQAFKEPYEDENDPHEEYLFFSIPDSTNIVLSHGVMKGYLDKEPNSRCKGSYGLRHAIDRVKPDLLICGHMHGCQGHTTHNNTTVILPSFCKRDKFGEETNNPYIIDIIPKLSLRMSIWKKSEKIPKMLKMNFPNVFFYLIFLILKKIWREELFVFEFYHDGEGHHHHHH	soluble
MVSDAAERNLAFALSELDRITAQLKLPRHVEEEAARLYREAVRKGLIRGRSIESVMAACVYAACRLLKVPRTLDEIADIARVDKKEIGRSYRFIARNLNLTPKKLFVKPTDYVNKFADELGLSEKVRRRAIEILDEAYKRGLTSGKSPAGLVAAALYIASLLEGEKRTQREVAEVARVTEVTVRNRYKELVEKLKIKVPIA	soluble
MSLNALDPHDALPWIEETTALELSPSQRSAVTLVLASKVSIITGGPGVGKTTILKAILSVLQREKVSVALCAPTGRAAKRLTESTGIEAKTIHRLLEFDPQAFDFKRGRGNPLDASFVVVDETSMVDVVLMQKLVAAIPDHAAVVFVGDVDQLPSVGPGAVLADMISSEAIPTVRLTEIFRQAAESMIVVNAHRINQGDMPLTAEGEELSDFYVVKAASAEEIHDKVIQLVTERIPKRFGLDAVKDVQVLTPMNKGGVGVHALNAELQAKLNPASEPKVTRFGTTFAPGDKVIQTVNNYDKEVFNGDIGLIEAIDPEAEIATAFFFDHHRAEYDFNDLDELSLAYATSIHKSQGSEYPAVVIPLAMQHFTLLERNLIYTAVTRGRKLVVIVAEPKALTLAIKNCKSKRRLTGLVQRLRESGKQSWQNEGHHHHHH	soluble
MIDMFPMEKGEEQETYELIVRVFHKYVAPVYSENGVARFLGMLSPEGLSEMNNGKNSFVIVARDQSKIIGMISVINDSHIALFFVSPRYQGKGIGKNILDEAIKNCLNRNPELSAVTVSSSPNSKSFYEEAGFEVIGLEHHHHHH	soluble
MATEQHLRQQLAAAYRLAALFGWEDTLYTHFSVRLPGDGEPRFLINPFGMMFDEVTASNLIVVDMQGKVVAGDAPANSAGFTIHSAVHMAREDAHCVIHTHTLPGMAVAACEDGLLQLNQISTEFYQRVGYHPYEGVAFDLDERARIQRSLGNNIAMILQSHGLLSVGRTVADAFYIMYYLNRACEIQMATAQLAALSPIHTIAPHLSQHACEQLMGVEHERQQVWQAWLRRLDRLDTSYKD	not soluble
MPYRNCWSKIMKKLINDVQDVLDEQLAGLAKAHPSLTLHQDPVYVTRADAPVAGKVALLSGGGSGHEPMHCGYIGQGMLSGACPGEIFTSPTPDKIFECAMQVDGGEGVLLIIKNYTGDILNFETATELLHDSGVKVTTVVIDDDVAVKDSLYTAGRRGVANTVLIEKLVGAAAERGDSLDACAELGRKLNNQGHSIGIALGACTVPAAGKPSFTLADNEMEFGVGIHGEPGIDRRPFSSLDQTVDEMFDTLLVNGSYHRTLRFWDYQQGSWQEEQQTKQPLQSGDRVIALVNNLGATPLSELYGVYNRLTTRCQQAGLTIERNLIGAYCTSLDMTGFSITLLKVDDETLALWDAPVHTPALNWGK	soluble
MYLIEPIRNGKRITDGAVALAMQVYVQENLFLDDDILFPYYCDPKVEIGKFQNAVVETNQEYLKEHHIPVVRRDTGGGAVYVDSGAVNICYLINDNGIFGDFKRTYQPAIEALHHLGATEVEMSGRNDLVIDGKKVSGAAMTIANGRVYGGYSLLLDVDFEAMEKALKPNRKKIESKGIRSVRSRVGNIREHLAPQYQGITIEEFKDLMVCQLLQIETISQAKRYDLTEKDWQQIDALTERKYHNWEWNYGNAPQYRYHRDGRFTGGTVDIHLDIKKGYIAACRIYGDFFGKADIAELEGHLIGTRMEKEDVLATLNAIDLAPYLGAITAEELGDLIFS	soluble
MANFQATIHSRPLSPEFMTQARRPASTIQAVLTNLREKISLQSILPGARLTEEELVDNYSIPRAMAREVLAVLEDRGIVRRIPNKGAVVAHVDMQWVYHYYDAREALDGMMVRLAARQTRPEDWADLVEQFGEPFQKALETGDVDRLISLIETFRNRLQTAANNPVLSDLAERIHERIRVVRQRVVLLPGRAETMVADYRAVLAALARSDAEEAEQLMGILNRNNRAAIQKYERYVV	not soluble
GPGSMGYRLLRDNVFKASCAKDSDELRARREPTMLYKEDQLVAPASGTERRYTLVLDLDETVIYAREGPLYARAYLKELLSFIRKNFEVIVWTAGEREYAECILEEINIRNTVRHLIHRHKTWFSFDDYTKDLTKLGRNLDYVIIIENSPDCVRTNPQNGIIVDDFRVSQTPPMEEAEAAWEGDGNNRERKAGSRSDSKTRRQVTDRTLLLLREVLKAMVESGETVPDFLAKCPLLTQRRVIGSDGSQIQTYHLGTRRKRGIPQLCASSPKRRRVTKESAPGATCTS	soluble
MGSDKIHHHHHHMSNKKLIINADDFGYTPAVTQGIIEAHKRGVVTSTTALPTSPYFLEAMESARISAPTLAIGVHLTLTLNQAKPILPREMVPSLVDEAGYFWHQSIFEEKVNLEEVYNEWDAQIISFMKSGRRPDHIDSHHNVHGKNKKLLGVALALARKYQLPLRNASRSIETKDYLELYQDVRTPDEMLYQFYDKAISTETILQLLDMVVCSEGEVFEINCHPAFIDTILQNQSGYCMPRIREVEILTSQEVKEAIEERGILLANYESLAM	not soluble
MAGDPMVMLNTHVVECLQACGRCAAACDYCASSCLREGHGADMARCIALDLDCAAACRLCAAMMARESEFSTHMCTLCARICEVCGDECARHEPRHCQECATACHACASACRAMARPLEHHHHHH	soluble
MMRIAVKEFLKIRRELKTLSDIRKLPYPRGTLHCILQQKKVDSVKRKYHTFAERIPEIISYWEREKKFPKWLTLPPVMKIRLLMKGMGFSAKSINKALRNPEDVVEDEKLAEQIRKAVLSDYVYSPIAARLQRARGKLGERGLAYELEKAGIEFLTEKDLKGRFSKTPDFYFEEPVEFMGEELKWIESKALFGDPRSHDLYWKKQYSKYYEMFGNGLIVYWLGCVESIEASDGSEFKNGYRTSLLDMLLYLTDSKDESYAERLNARFIEVNEQNDVLAAEKVVDAYAEGRVLAFTDRKREVARILKNMGFDVTLGQNYLTTLTANTLCHSPTANKAISLLSSLLCLINHPNLLLSAENPASLKFLLKYLFRNLLEHHHHHH	not soluble
MENPINELAAAVHDGLGLTYPPIIDMGPQLTREQLLASMSATMRRHKGGPVWLFAYGSLIWRPECTAVESQRGRVHGYHRGLYLWSHEHRGTPEVPGLVFGLDRGGSCTGFAYRLPDDCLEKSLLALWEREMPYPSYRPHWLNCRLEDGRKVQALGFVLERHLPSYAGNLPDSVLSQVLASASGRYGTTRDYVEQTAKALRSHAMPDLNLEARLKRCKSETAAAALEHHHHHH	not soluble
MLRIYAPASSANISVGFDTLGAAISPIDGSLLGDVVQIESISTGFELESAGYFVRKLPKEPQKNIVYQAYVLFSEQLKLRGANVKPLRLTLEKNMPIGSGLGSSACSIVAALVALNQFHNEPFSKMELLEMMGELEGRISGSIHYDNVAPCYLGGVQFMVQS	not soluble
MGSDKIHHHHHHMYSDQTYEVIKNRTLENINLDIYKGEGSFLNNMVSGNNLELSKIYLELSKMHKMAFIQDTYNQFLDKRVNEFGVYRKLGTESNGEVEFIGEKGTVINNGTIISYRDLLFVVIKDVTIGSEEGDNSPVQALEVGKKYNLPTNCEFKLVDNISGVTKITNTRSFEGGTDIETDEELKERFYKIQRNQATSGNKAHYEEWALEVDGVYNVKVYPRWDGPGTVKVLIFGKNNQAVDTETIERCQQHIDEEKPIGPTITVVTPLPIEISISAVMKLEDGYTLDNVKESFLESINTYFRDIRGEIIYTKVMGILINTTGVHDLSNLLINGSTDNITINEDKIPSVTTVNFSEVENQ	not soluble
RHLVVPLNRLRDRADALRADELESTPLAAPLAARRDELGELAQALEHMAERLRLSLAQQRLLLRTLSHELRTPLARLRIAHDSELPPEQLRQRLDREIGDMQRLLEDTLDLAWMDTERPQLPTEPVLALSVWEALRDDACFESGWDPARLPCRLGVDCRVEVHLDSLAQAMENLLRNAIRHSPEDGTVSLDGEREGDFWHLRLQDQGPGVAEDQLERIFLPYQRLDDSAGEGFGLGLAIARRAIELQGGRLWASNGKPGLC	not soluble
MSLNKTQAQVSHALKSLARKEEWKHRLQQSEELHDILLKAANRYVAGEKRSDGLAIARKLQAKGYGISLENIGENTKLLAQCREAKMEFDQLIEDVGAIAPGQTVSFDLSHIGLSYQFDTAYGHLIELAEKANEHEVTLMISMEESTKTDQILAVYRQAAELYSNIGITLQAHLFRTPDDLRKLVQLPGKIRIVKGAYQEPSHLAMERSDYLNNRYLELVDHLVSTNHPVSVATHDQKLLEEMERRQFLQSTDVEIEMLYGIQPSQLKLFKEKGYQTRVYLTYGHEWFLYLCHRLAEYPENIYTALIDIINPSLPKVDDMYEGHHHHHH	soluble
MGSDKIHHHHHHADWKVGIQTWTFHNLTLMETLDKTQQLGMGYAEAFFFQELGAPFPKETYLNYDLSDDNCALLRHEFKIRGIKPIAFGVASYGTNEEWDKFFAFAHKIGAHIVTVEPELNQLDYIESLAKKYDMEVAIHNHPSPCIYASAEVVEKALKGRSPLMGVCADIGHWKRVGEDPLKNLQKLSGRIKVAHLKDLTDKMEDATWGTGILPVKAFVNELKRQHFNGLISIEYDDFKSDIQEIRNSLEFLQKCSK	not soluble
